According to patent US20120129776A1:

Biological target: MrgX1 (Mas-related G-protein coupled receptor member X1) (UniProt Q96LB2)
Experiment: cell-based or functional assay

Chain of MrgX1 (Mas-related G-protein coupled receptor member X1) (Q96LB2 whole entry): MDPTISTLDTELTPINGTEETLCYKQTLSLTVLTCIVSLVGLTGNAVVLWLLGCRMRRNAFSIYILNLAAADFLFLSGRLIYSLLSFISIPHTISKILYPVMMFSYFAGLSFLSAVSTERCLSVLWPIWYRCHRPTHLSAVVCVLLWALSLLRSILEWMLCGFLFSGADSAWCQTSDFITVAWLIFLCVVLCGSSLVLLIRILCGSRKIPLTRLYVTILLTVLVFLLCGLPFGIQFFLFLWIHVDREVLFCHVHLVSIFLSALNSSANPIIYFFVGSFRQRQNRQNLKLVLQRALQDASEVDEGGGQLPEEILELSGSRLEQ

BAM22 (bovine adrenal medulla peptide 22) (from UniProt P01211 206-227)
EC50 of calcium flux dose response: > 50 nM
